Results: the supplement of paper PMC9732359
± gives the uncertainty stated by the source.

Test: protein stability index of a GFP-peptide fusion (yeast GPS) (PSI 1-4); higher = more stable; sorted into four equal gates, so the index is relative within each strain
Summary of the method: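 The protein stability index of a peptide was calculated by multiplying its read frequency in each gate by that gate's number and adding the products. The peptides were tiled 17-residue stretches of yeast proteins, fused downstream of GFP on a Cherry-expressing plasmid and carried in yeast as a pooled library. Mid-log cultures in leucine-free medium were sorted into four equal gates by GFP/Cherry ratio, and each gate's plasmids were PCR-amplified and Illumina-sequenced.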

Sequence	protein stability index (doa10∆)	protein stability index (pdr5∆)	protein stability index (san1∆)	protein stability index (ubr1∆)
NAIIEANLGKYGILSID [RPL7A]	2.87 ± 0.17	2.97 ± 0.14	2.84 ± 0.094	2.89 ± 0.15
FNVPVVSKQLGNGLVDE [YAR002W/NUP60]		3.66 ± 0.22	3.26 ± 0.14	2.99 ± 0.14
REPDFWVIRKQRRTNNS [MED6]	3.51 ± 0.15	3.29 ± 0.09	2.97 ± 0.097	2.93 ± 0.096
KKLNKNKKLIKKLSKKY [RPL1A]	3.78 ± 0.21	3.43 ± 0.11	3.1 ± 0.12	3.52 ± 0.22
GYLFKVSALDKCIKYSE [ECM29]	3.08 ± 0.13	2.11 ± 0.09	1.95 ± 0.11	2 ± 0.074
KAPLQPNSERETDHANT [IRR1]	2.6 ± 0.083	2.98 ± 0.062	2.59 ± 0.068	2.88 ± 0.047
FTKNEEKLLKELENNEF [ITC1]	2.26 ± 0.083	2.28 ± 0.074	2.27 ± 0.083	2.24 ± 0.27
MSGAAAASAAGYDRHIT [SCL1]	3.08 ± 0.24	2.87 ± 0.16	3.27 ± 0.12	2.94 ± 0.14
PIFNYIFTEKIYKSIFN [YJL039C/NUP192]	1.33 ± 0.034	1.46 ± 0.04	1.41 ± 0.074	1.16 ± 0.039
MKYLAAYLLLNAAGNTP [RPP2A]	1.88 ± 0.031	2.05 ± 0.033	1.9 ± 0.05	2.32 ± 0.036
RSQDQENPAFLPGTNNN [SEC65]	2.79 ± 0.082	2.75 ± 0.079	2.19 ± 0.063	2.8 ± 0.064
DDYSNEDNEMLEDLFSY [YJR042W/NUP85]	2.01 ± 0.15	1.94 ± 0.15	1.76 ± 0.18	1.66 ± 0.073
LLPANLLSLNSVRSLQK [SRP68]	2.71 ± 0.059	2.48 ± 0.063	2.49 ± 0.057	2.81 ± 0.046
LFLTAPDSCNMQEKAAH [YCS4]		2.67 ± 0.24	2.86 ± 0.12	2.92 ± 0.11
QYTKDEQFYTKDIIDPK [RPN2]	3.53 ± 0.13	3.24 ± 0.094	2.78 ± 0.15	3.29 ± 0.065
LIYHLKDCAEVDSRTKI [IRR1]	3.23 ± 0.086	3.18 ± 0.072	3.02 ± 0.058	3.23 ± 0.092
YILSLVSIKDSTGCVVG [YMR129W/POM152]	1.41 ± 0.041	1.47 ± 0.047	1.92 ± 0.062	1.48 ± 0.034
RTWYESFCGFLLYYIPS [YJR042W/NUP85]	1.88 ± 0.055	1.43 ± 0.047	1.58 ± 0.11	1.99 ± 0.057
GGALDNPFEDDMDGVDF [BRN1]	3.39 ± 0.054	3.32 ± 0.077	3.4 ± 0.039	3.41 ± 0.057
QDLNQRFQDPYVAIVVD [RRI1]		2.79 ± 0.11	2.29 ± 0.15	2.71 ± 0.12
HEEDQKTNIIEKAMDYA [RPN12]	2.52 ± 0.087	2.75 ± 0.078	2.37 ± 0.084	3.02 ± 0.096
NVESVGSIPVDQVVVRG [RPB3]	2.63 ± 0.057	2.45 ± 0.072	2.3 ± 0.07	2.23 ± 0.059
LSFVDIVLSKAASALDE [SIR4]	1.84 ± 0.11	2.8 ± 0.071	2.59 ± 0.14	2.21 ± 0.054
AARDNKKTRIIPRHLQL [HTA1]	3.04 ± 0.18	3.38 ± 0.11	3.37 ± 0.13	3.15 ± 0.19
RKHRNAQFAGRASIEYY [DIS3]	2.99 ± 0.13	3.11 ± 0.072	2.8 ± 0.13	2.99 ± 0.094
SYYGIVCLMQISTRERD [RRP6]	1.96 ± 0.12	1.41 ± 0.081	1.21 ± 0.16	1.39 ± 0.09
SYIGTIIVKDKSNDSEG [POP1]	1.4 ± 0.1	1.44 ± 0.052	1.45 ± 0.093	1.35 ± 0.093

Sequence	protein stability index (doa10∆)	protein stability index (pdr5∆)	protein stability index (san1∆)	protein stability index (ubr1∆)
VSTPEKWDITTRNSNNL [BRR2]	3.27 ± 0.14	3.19 ± 0.17	3.26 ± 0.082	3.04 ± 0.069
KGPIIISKNPSNGIFYG [SIR2]	2.74 ± 0.067	2.5 ± 0.061	1.92 ± 0.083	2.3 ± 0.053
QTQQDLPKVRYNVEKVK [NSL1]	2.7 ± 0.074	2.57 ± 0.063	2.75 ± 0.054	2.33 ± 0.079
SDLVNQGIIYAKVNRPA [RPN5]	2.97 ± 0.15	3.66 ± 0.26	2.84 ± 0.17	
TFTKKCLENARSQISEK [SIR4]	3.2 ± 0.063	3.12 ± 0.057	3.15 ± 0.05	3.07 ± 0.041
HLLPAFLKVKGLVKQHL [RET1]	3.2 ± 0.22	3.8 ± 0.2		
KELQQLQKQILTVENKL [SMC1]	1.74 ± 0.081	1.99 ± 0.063	1.98 ± 0.091	2.18 ± 0.09
TRHQNTIHAKRKIVFRC [RPN4]	2.75 ± 0.052	2.85 ± 0.059	2.8 ± 0.07	2.64 ± 0.052
DTQFTKLLDDNPTEFDW [SRB8]	2.99 ± 0.089	3.04 ± 0.071	2.91 ± 0.058	2.91 ± 0.043
ISLPKGKGIKLSIAEER [RPS4A]	2.03 ± 0.15	2.18 ± 0.28	2.62 ± 0.081	2.47 ± 0.077
TENAIEEKVIERAAQKL [ISW2]	2.61 ± 0.095	2.74 ± 0.17		2.79 ± 0.051
TTLNEMFRYKTNLYKLK [PUP3]	3.06 ± 0.14	2.66 ± 0.11	1.76 ± 0.13	2.08 ± 0.1
KRFQVLYPCYFDINRSH [SEC65]	2.11 ± 0.062	2.11 ± 0.055	1.88 ± 0.071	2.06 ± 0.039
TVKLTEIVWTSSLIKAG [RPO31]	1.48 ± 0.058	1.69 ± 0.067	1.24 ± 0.14	1.24 ± 0.063
YTAVDTAKLQMRRFILG [RPN14]	1.35 ± 0.27	1.47 ± 0.093	1.55 ± 0.3	1.25 ± 0.18
HYNDSQQLRTWKRQISY [SRB8]	3.25 ± 0.085	3.39 ± 0.14	3.21 ± 0.09	3.32 ± 0.19
KSAMDTFKSVSKYGMLL [POP3]	2.41 ± 0.063	2.87 ± 0.056	2.7 ± 0.07	2.45 ± 0.055
NLSRYPKSGIDIFVYLT [MTR3]	2.35 ± 0.049	1.97 ± 0.052	2.07 ± 0.079	2.27 ± 0.054
GKGESVIFNDNVTETYS [SIR3]	3.08 ± 0.21	2.92 ± 0.14	2.88 ± 0.074	2.87 ± 0.2
LEWNMANLLFKKEKLKQ [RPC82]	2.13 ± 0.11	1.45 ± 0.049	1.38 ± 0.13	1.37 ± 0.082
LGDMAVCFNNLVDENTD [YCS4]	2.61 ± 0.068	2.8 ± 0.077	2.72 ± 0.076	2.85 ± 0.064
SLTSKRLISQSLLASKS [RIP1]				1.36 ± 0.21
EKNDQNNDDDDNSVEQG [MCD1]		3.15 ± 0.22		
LLTKNVSCYRPRRDGER [RPS6A]	1.24 ± 0.22	2.8 ± 0.12	3.19 ± 0.085	3.4 ± 0.096
SNIMSDSKKIKVDSPDD [GAL11]	2.9 ± 0.078	2.73 ± 0.079	3.03 ± 0.072	2.88 ± 0.061
LQDLISVYGLDDISRQV [ROX3]	2.69 ± 0.077	2.88 ± 0.086	2.84 ± 0.12	3.21 ± 0.051
VSNPIRKVFKPSQGMVV [FAS1]	3.08 ± 0.068	2.74 ± 0.061	2.87 ± 0.14	2.66 ± 0.068
